In patent publication US7432419B2 (priority 2004, dated 2008):

B1: Elastase: Human Neutrophil Elastase (Sigma), used as surface recognition domain component (protein, listed as Homo sapiens)
chain: EIVGGRRARPHAWPFMVSLQLRGGHFCGATLIAPNFVMSAAHCVANVNVRAVRVVLGAHNLSRREPTRQVFAVQRIFENGYDPVNLLNDIVILQLNGSATINANVQVAQLPAQGRRLGNGVQCLAMGWGLLGRNRGIASVLQELNVTVVTSLCRRSNVCTLVRGRQAGVCFGDSGSPLVCNGLIHGIASFVRGGCASGLYPDAFAPVAQFVNWIDSIIQ
modifications: truncated neutrophil elastase protein
notes: Human Neutrophil Elastase (Sigma), used as surface recognition domain component

Assays:
[1] = tested on: Xylella fastidiosa (Xf strain "Stags Leap"); format: cell-based
E. coli strain HB 101 = format: cell-based
[2] = tested on: Xf outer-membrane protein mopB; format: biochemical, Xylella fastidiosa

Molecule | bacterial growth inhibition (killing) of Xf [1] | bacterial growth inhibition (killing) of E. coli (E. coli strain HB 101) | effect of elastase on Cecropin B-stimulated lysis of Xf cells [1] | digestion of purified mopB [2]
Cecropin B [reference compound] | some growth inhibition | complete growth inhibition |  | 
B1 | insufficient to inhibit bacterial growth | insufficient to inhibit bacterial growth | greatly enhances | at least partially digested
